Experimental data as given in patent publication US10246495B2, “Variants of Gal2 transporter and their uses” (BUTALCO GMBH, priority 2014, dated 2019).
Numbering of substitutions follows the chain as printed. In names and notes the source's numbering stands. Entries after “also recorded” stand apart in the source; their conditions may differ.

B1: V71I: Gal2 of CEN.PK with amino acid exchange V71I alone (protein, UniProt P13181 1-574, looked up, variant V71I)
Galactose transporter: MAVEENNMPVVSQQPQAGEDVISSLSKDSHLSAQSQKYSNDELKAGESGSEGSQSVPIEIPKKPMSEYVTISLLCLCVAFGGFMFGWDTGTISGFVVQTDFLRRFGMKHKDGTHYLSNVRTGLIVAIFNIGCAFGGIILSKGGDMYGRKKGLSIVVSVYIVGIIIQIASINKWYQYFIGRIISGLGVGGIAVLCPMLISEIAPKHLRGTLVSCYQLMITAGIFLGYCTNYGTKSYSNSVQWRVPLGLCFAWSLFMIGALTLVPESPRYLCEVNKVEDAKRSIAKSNKVSPEDPAVQAELDLIMAGIEAEKLAGNASWGELFSTKTKVFQRLLMGVFVQMFQQLTGNNYFFYYGTVIFKSVGLDDSFETSIVIGVVNFASTFFSLWTVENLGHRKCLLLGAATMMACMVIYASVGVTRLYPHGKSQPSSKGAGNCMIVFTCFYIFCYATTWAPVAWVITAESFPLRVKSKCMALASASNWVWGFLIAFFTPFITSAINFYYGYVFMGCLVAMFFYVFFFVPETKGLSLEEIQELWEEGVLPWKSEGWIPSSRRGNNYDLEDLQHDDKPWYKAMLE
B2: T354A: Gal2 of CEN.PK with amino acid exchange T354A alone (protein, listed as Saccharomyces cerevisiae)
chain: B1 Galactose transporter with S50P, I71V, R280L, T354A, H392R
B3: V71I and T354A: Gal2 of CEN.PK with amino acid exchanges T354A and V71I (protein, UniProt P13181 1-574, looked up, variant V71I T354A)
Galactose transporter: B1 Galactose transporter with T354A

Experiments:
[1] = molecular target: Gal2 (Saccharomyces cerevisiae, UniProt P13181); details: galactose transport by Gal2; cited from earlier work
Chain of Gal2 (P13181 whole entry): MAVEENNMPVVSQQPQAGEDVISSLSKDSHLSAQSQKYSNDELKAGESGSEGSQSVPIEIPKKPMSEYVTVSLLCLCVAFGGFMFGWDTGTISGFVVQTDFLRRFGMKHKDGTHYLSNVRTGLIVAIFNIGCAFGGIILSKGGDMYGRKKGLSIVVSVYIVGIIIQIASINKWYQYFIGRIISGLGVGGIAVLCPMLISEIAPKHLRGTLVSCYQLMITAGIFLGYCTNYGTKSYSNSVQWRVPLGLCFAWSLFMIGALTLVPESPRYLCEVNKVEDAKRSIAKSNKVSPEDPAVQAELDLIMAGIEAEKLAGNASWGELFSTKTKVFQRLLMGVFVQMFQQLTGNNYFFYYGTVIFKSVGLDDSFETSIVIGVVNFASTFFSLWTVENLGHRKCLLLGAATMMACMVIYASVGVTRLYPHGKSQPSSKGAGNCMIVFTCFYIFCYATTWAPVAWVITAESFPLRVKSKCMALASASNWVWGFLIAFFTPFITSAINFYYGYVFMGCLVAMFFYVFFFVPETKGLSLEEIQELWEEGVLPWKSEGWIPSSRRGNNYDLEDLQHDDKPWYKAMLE

[2] = system: EBY.VW4000; experiment: Serial dilution growth drop test of Gal2 variants in EBY.VW4000 on hexoses; type: cell-based, Saccharomyces cerevisiae; details: FIG. 3, four days at 30°; for growth on glucose: Gal2 of CEN.PK constructs
Protocol: The transformants were cultivated in 5 ml SCM-ura with 20 g/l maltose at 300, washed with water and adjusted to an OD600 of 1. Thereof it followed a serial dilution. 5 μl were dropped onto the respective media and it was incubated for […] at 30°. As a control for the dilution SCM-ura with 20 g/l maltose was taken. The cells of the mutated transporters were dropped onto SCD-ura with 0.2% and 2% glucose, as well as SCG-ura with 0.2% and 2% D-galactose to test their functionality. Furthermore the wild type of CEN.PK2 and Ethanol Red, as well as Gal2_ep3.1 were used for comparison. The galactose transporter with the mutation T354A is from HDY.GUF10.
FIG. 3: Drop test of Gal2_T354A in combination with V71I and L280R in EBY.VW4000 after four days at 30°. Several dilutions were dropped from left to right (undiluted, 1:10, 1:100, 1:1000).
(§1) For easy comparison of growth of different S. cerevisiae strains under various growth conditions a serial dilution spot assay was performed. Cells were grown in liquid culture to exponential phase in appropriate medium, collected by centrifugation (2000×g, 2 min), washed twice with sterile water and then resuspended to an OD600 of 1.0 in selective medium without carbon source. From this cell suspension a ten-fold serial dilution was prepared in selective medium (four dilution steps). 6 μl of each cell suspension were spotted on plates of the media to be examined and allowed to dry. Plates were incubated at 30° C.
First a growth test was performed with the vectors in VW4000 on glucose and maltose media. The galactose transporter of the wild type CEN.PK2, as well as Gal2_ep3.1 were used as controls and as a comparison.
The following variants of Gal2 were constructed in expression vectors: T354A, T354A+V71I, T354A+L280R, L280R and […]. They were transformed into competent EBY.VW4000 cells. Then drop tests were performed on different carbon sources.

[3] = system: AFY10; experiment: Serial dilution growth drop test of Gal2 variants in AFY10 on xylose and xylose-glucose mixtures; type: cell-based, Saccharomyces cerevisiae; details: FIG. 4; 2 g/l xylose, six days at 30°
Protocol: The transformants were cultivated in 5 ml SCE-ura-leu with 2% ethanol at 300, washed with water and adjusted to an OD600 of 1. Thereof it followed a serial dilution. 5 μl were dropped onto the respective media and it was incubated for […] at 30°. As a control for the dilution SCE-ura-leu with 2% ethanol was taken. The cells of the mutated transporters were dropped onto SCX-ura-leu with 0.2% and 2% D-xylose, as well as SC-ura-leu with 1% D-xylose with 4% D-glucose and SC-ura-leu with 0.2% D-xylose and 2% D-glucose to test their functionality. Furthermore the wild type of CEN.PK2 and Ethanol Red, as well as Gal2_ep3.1 were used for comparison. The galactose transporter with the mutation T354A is from HDY.GUF10.
FIG. 4: Drop test of Gal2_T354A in combination with V71I and L280R in AFY10 after six days at 30°. Several dilutions were dropped from left to right (undiluted, 1:10, 1:100, 1:1000).
as §1
Furthermore this was also done with AFY10 in order to investigate the xylose specificity and the glucose affinity of the transformants.
The various constructs were transformed into AFY10 cells together with vector YEp181_pHXT7-optXI_Clos, and serial dilution growth drop tests were performed.

Molecule | Km [1] | effect on uptake of glucose or galactose [2] | growth on low xylose concentrations [3] | growth on glucose [2]
O=C[C@H](O)[C@@H](O)[C@@H](O)[C@H](O)CO [galactose] | 1000 to 5000 µM |  |  | 
B1 |  | no effect | very slow growth; also recorded: poor growth | 
B2 |  |  | poor growth | strongly impairs growth
B3 |  |  | growth like the Gal2 wild type | does not mediate growth
